The target of experiment [1] is HER3 on cells (MDA-MB-453, moderate HER3; HCC-1954, low HER3) (human) (UniProt P21860). Nature of the experiment: cell binding on MDA-MB-453 cells (moderate HER3), 250 nM peptide, streptavidin-HRP and ABTS.
In experiment [2] the target is HER3 extracellular domain (ECD) (R&D Systems) (human) (UniProt P21860). As to the kind of experiment: ELISA of purified phage on adsorbed HER3 ECD, anti-M13-HRP and ABTS. A general note: In an ELISA, binding on a coated surface is turned into a signal by an enzyme label.
HER3 extracellular domain (ECD) (R&D Systems) (human), sequence (P21860 20-643): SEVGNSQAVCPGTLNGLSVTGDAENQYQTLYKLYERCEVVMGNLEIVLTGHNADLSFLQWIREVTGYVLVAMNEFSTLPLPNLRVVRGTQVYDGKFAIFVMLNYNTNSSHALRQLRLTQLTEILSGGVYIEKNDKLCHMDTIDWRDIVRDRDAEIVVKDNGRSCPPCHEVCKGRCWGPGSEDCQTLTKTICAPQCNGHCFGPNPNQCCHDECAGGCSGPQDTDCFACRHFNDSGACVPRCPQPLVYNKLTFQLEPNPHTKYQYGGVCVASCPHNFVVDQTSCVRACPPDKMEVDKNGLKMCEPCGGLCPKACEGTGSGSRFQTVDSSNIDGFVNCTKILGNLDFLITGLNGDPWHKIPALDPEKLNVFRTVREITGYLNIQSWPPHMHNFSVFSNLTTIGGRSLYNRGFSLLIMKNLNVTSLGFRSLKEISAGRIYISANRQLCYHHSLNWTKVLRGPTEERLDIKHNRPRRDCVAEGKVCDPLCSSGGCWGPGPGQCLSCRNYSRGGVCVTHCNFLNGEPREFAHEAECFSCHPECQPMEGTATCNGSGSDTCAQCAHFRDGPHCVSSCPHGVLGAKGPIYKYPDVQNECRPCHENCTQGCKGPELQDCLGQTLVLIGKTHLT
For experiment [3], the target named is T1, HER3 extracellular domain (ECD) (R&D Systems) (human, UniProt P21860 20-643).
T1 construct: extracellular domain; Adsorbed to Maxisorp plates in the ELISAs; also called HER3 ECD; ERBB3
T1 sequence (P21860 20-643): as above
Nature of the experiment: phage binding to HER3, normalized to parent phage.

The target of experiment [4] is bovine serum albumin (bovine) (UniProt P02769). As to the kind of experiment: peptide ELISA on immobilized protein, 250 nM peptide, streptavidin-HRP and ABTS.
bovine serum albumin (bovine), sequence (P02769 25-607 limits assumed): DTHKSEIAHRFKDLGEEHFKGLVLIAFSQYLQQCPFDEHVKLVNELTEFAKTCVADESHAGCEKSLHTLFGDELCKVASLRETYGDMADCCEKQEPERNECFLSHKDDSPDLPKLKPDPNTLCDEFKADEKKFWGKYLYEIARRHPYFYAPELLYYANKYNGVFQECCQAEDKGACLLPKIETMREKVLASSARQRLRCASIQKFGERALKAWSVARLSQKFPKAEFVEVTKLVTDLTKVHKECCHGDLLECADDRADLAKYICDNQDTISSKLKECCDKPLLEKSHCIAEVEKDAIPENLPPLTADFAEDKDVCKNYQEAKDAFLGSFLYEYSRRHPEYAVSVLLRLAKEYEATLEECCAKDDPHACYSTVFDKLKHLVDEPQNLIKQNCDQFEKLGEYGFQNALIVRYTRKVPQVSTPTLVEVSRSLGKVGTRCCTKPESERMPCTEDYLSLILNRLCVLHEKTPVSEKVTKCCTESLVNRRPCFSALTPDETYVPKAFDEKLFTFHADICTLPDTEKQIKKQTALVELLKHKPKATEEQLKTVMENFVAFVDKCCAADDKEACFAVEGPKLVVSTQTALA
For experiment [5], the target named is T2, HER2 extracellular domain (UniProt P04626 23-652, limits assumed).
T2 construct: extracellular domain; Immobilized on plate for peptide ELISA; also called ErbB2; neu
As to the kind of experiment: peptide ELISA on immobilized ECD, 250 nM peptide, streptavidin-HRP and ABTS.

Experiment [6] addresses T1, HER3 extracellular domain (ECD) (R&D …). Described as above.
Experiment [7] has as its target T3, EGFR extracellular domain (UniProt P00533 25-645, limits assumed).
T3 construct: extracellular domain; Immobilized on plate for peptide ELISA
The description is as above.

The values that follow come from patent publication US20200121814A1 (GENERAL HOSPITAL, published 2020).

Bridge positions count the residues as written; N and C are the ends. Ends that are not written are not given here. * marks the point of attachment. Biotin = O=C1N[C@H]2[C@H](CS[C@H]2CCCCC(=O)*)N1 Where only a bound is given, the exact number is not on record here.

HER3 on cells (MDA-MB-453, moderate HER3; HCC-1954, low HER3) (human), sequence (P21860 20-1342): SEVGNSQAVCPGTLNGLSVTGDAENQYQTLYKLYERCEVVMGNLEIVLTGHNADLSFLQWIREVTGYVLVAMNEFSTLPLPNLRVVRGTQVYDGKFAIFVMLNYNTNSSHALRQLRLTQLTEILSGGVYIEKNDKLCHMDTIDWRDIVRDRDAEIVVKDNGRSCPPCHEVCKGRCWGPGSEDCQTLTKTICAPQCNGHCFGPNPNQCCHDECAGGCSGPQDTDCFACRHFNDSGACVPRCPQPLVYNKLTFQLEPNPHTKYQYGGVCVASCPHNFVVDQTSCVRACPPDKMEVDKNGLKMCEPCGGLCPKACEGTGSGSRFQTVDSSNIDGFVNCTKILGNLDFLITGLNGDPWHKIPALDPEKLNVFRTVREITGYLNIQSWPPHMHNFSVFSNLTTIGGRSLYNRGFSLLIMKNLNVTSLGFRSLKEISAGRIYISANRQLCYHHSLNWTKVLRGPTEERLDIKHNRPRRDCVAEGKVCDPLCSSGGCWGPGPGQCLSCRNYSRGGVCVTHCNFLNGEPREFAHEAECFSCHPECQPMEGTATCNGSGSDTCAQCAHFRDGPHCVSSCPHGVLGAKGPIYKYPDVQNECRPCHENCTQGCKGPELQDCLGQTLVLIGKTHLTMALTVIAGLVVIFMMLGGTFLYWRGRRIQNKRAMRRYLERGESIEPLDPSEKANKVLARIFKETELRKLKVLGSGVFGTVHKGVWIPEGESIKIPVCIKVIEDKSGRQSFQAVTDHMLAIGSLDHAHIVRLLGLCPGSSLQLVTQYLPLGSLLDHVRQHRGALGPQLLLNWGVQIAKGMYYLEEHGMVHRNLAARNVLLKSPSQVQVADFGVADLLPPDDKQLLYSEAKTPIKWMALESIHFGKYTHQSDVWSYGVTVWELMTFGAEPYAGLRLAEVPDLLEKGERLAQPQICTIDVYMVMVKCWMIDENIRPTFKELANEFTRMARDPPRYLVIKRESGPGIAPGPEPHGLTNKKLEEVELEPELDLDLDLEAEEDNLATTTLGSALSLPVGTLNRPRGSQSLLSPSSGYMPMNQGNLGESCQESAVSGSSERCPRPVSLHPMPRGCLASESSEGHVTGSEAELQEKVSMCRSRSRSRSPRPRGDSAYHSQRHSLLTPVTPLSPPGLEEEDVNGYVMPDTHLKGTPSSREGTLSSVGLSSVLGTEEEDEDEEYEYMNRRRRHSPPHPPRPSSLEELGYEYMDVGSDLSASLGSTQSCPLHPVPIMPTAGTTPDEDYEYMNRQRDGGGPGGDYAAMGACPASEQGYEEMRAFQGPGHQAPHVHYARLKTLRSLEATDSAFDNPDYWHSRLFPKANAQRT

For the molecule control peptide, in experiment [1], the absorbance (405 nm) was 0.12 absorbance.

In turn, control phage bearing no peptide registered an absorbance (background subtracted, 405 nm) in experiment [2] of 0.007 absorbance.

On to CAPTKFRSC (peptide, not shown: large carriers) [phage M1 (alanine mutant at position 2 of the HER3P1 binding sequence)], for which the “decrease of binding against parent (HER3P1) phage” value (shortened to “decrease of binding against parent”) in experiment [3] was no less than 50%. CLPTKFASC (peptide, not shown: large carriers) [phage M6 (alanine mutant at position 7 of the HER3P1 binding sequence)]: the “decrease of binding against parent” value in experiment [3] was no less than 50%. Same read-out and setting: the value for CLATKFRSC (peptide, not shown: large carriers) [phage M2 (alanine mutant at position 3 of the HER3P1 binding sequence)] was no less than 50%; that for CLPAKFRSC (peptide, not shown: large carriers) [phage M3 (alanine mutant at position 4 of the HER3P1 binding sequence)] was no less than 50%.

As for CLPTKFRAC (peptide, not shown: large carriers) [phage M7 (alanine mutant at position 8 of the HER3P1 binding sequence)], in experiment [3], the “decrease of binding against parent” value was no less than 50%.

B1: HER3P1 (biotin-conjugated, N-terminal tri-glycine linker) (peptide)
peptide: Biotin-GGGCLPTKFRSC
modifications: disulfide 4-12 (inferred); not fully specified
notes: The formulas of the description print a beta A before G-G-G; also called HER3 peptide; the peptide
With B1, the absorbance (405 nm) was 0.15 absorbance in experiment [4], 0.22 absorbance in experiment [5], 0.82 absorbance in experiment [6] and 0.21 absorbance in experiment [7].
